Results taken from article PMC12366243, “Genomic context analysis enables the discovery of an unusual NAD‐dependent racemase in phosphonate catabolism” (The Febs Journal, 2025).

Legend:
[1] = tested on: T1, NC(=O)c1ccc[n+]([C@@H]2O[C@H](COP(=O)(O)OP(=O)(O)OC[C@H]3O[C@@H](n4cnc5c(N)ncnc54)[C@H](O)[C@@H]3O)[C@@H](O)[C@H]2O)c1; assay: purified protein; format: biochemical, Mesorhizobium plurifarium; details: 1 mM S-HAEP, 5 mM MgCl2, 50 mM TEA-HCl pH 8.0, 25 °C, exogenous NAD+, varied: cofactor
T1 construct: full-length, codon-optimized synthetic gene in pET24-C-His-tag (NdeI/NotI), C-terminal His tag kept; E. coli Tuner (DE3)

NC[C@@H](O)P(=O)(O)O = tested on: T2, NC[C@@H](O)P(=O)(O)O; assay: purified protein; format: biochemical, Mesorhizobium plurifarium; details: 1 mM NAD+, 5 mM MgCl2, 50 mM TEA-HCl pH 8.0, 25 °C, S-HAEP to R-HAEP
T2 construct: full-length, codon-optimized synthetic gene in pET24-C-His-tag (NdeI/NotI), C-terminal His tag kept; E. coli Tuner (DE3)

[2] = biological target: T3, PbfF (2-amino-1-hydroxyethylphosphonate racemase; HAEP racemase) (Mesorhizobium plurifarium, UniProt A0A090EUR6); assay: continuous coupled assay (PbfA, PhnX, NADP-dependent ADH), NADPH decrease at […] nm; format: biochemical
T3 construct: full-length, codon-optimized synthetic gene in pET24-C-His-tag (NdeI/NotI), C-terminal His tag kept; E. coli Tuner (DE3)

[3] = biological target: 2-amino-1-hydroxyethylphosphonate racemase (PbfF) from Mesorhizobium plurifarium (Mesorhizobium plurifarium); assay: SEC; analytical SEC, data not shown; 50 uL of 108 uM PbfF (monomer concentration) on Superdex 200 Increase 5/150 GL; 50 mM Tris, 200 mM NaCl, pH 7.9; 0.3 mL/min; calibrated with proteins of known molecular mass

T3 sequence (A0A090EUR6 1-336): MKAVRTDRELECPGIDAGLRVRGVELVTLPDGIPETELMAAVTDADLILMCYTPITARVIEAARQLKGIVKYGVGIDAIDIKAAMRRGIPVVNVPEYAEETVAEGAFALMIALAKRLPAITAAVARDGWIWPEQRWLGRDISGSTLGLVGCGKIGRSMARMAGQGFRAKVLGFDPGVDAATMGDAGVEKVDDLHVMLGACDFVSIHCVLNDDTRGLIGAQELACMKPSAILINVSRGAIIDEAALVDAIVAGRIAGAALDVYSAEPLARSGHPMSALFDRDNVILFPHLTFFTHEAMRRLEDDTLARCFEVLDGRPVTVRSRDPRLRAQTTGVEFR

PbfF (2-amino-1-hydroxyethylphosphonate racemase; HAEP racemase) (Mesorhizobium plurifarium)
K0.5 [1]: 200 µM | Km (NC[C@@H](O)P(=O)(O)O): 530 µM | kcat (NC[C@@H](O)P(=O)(O)O): 6.6 s⁻¹

NC(=O)C1=CN([C@@H]2O[C@H](COP(=O)(O)OP(=O)(O)OC[C@H]3O[C@@H](n4cnc5c(N)ncnc54)[C@H](O)[C@@H]3O)[C@@H](O)[C@H]2O)C=CC1 [NADH]
inhibition at 60 µM [2]: ~50%

2-amino-1-hydroxyethylphosphonate racemase (PbfF) from Mesorhizobium plurifarium (enzyme)
stoichiometry N [3]: 2
